According to patent publication US20250276043A1, “Pharmaceutical Composition Containing GLP-1 Compound” (Gan & Lee Pharmaceuticals Co., Ltd., priority 2021, published 2025):

Assays:
Kkay mice = experiment: Long-term pharmacodynamic study in type 2 diabetes Kkay mice (Example 18); assay type: in vivo; conditions: subcutaneous, 100 and 300 μg/kg; for Reduction in HbA1c (FIG. 5c): 48 hours after the final administration; for Hypoglycemic effect, blood glucose and AUC (FIGS. 5a-5b): once every 2 days, 16 doses
Protocol: Compound 5 from Example 5 and Compound 2 from Example 2 were tested on type 2 diabetes Kkay mice. The mice were administered different doses of Compound 5 and Compound 2, at 100 and 300 μg/kg, respectively. The effects of the GLP-1 compounds in the GLP-1 pharmaceutical composition of the present invention on reducing blood glucose levels and HbA1c were measured.
Male Kkay mice, 12-14 weeks old, were housed in suitable cages under barrier conditions with free access to standard food and purified water. The environmental conditions were controlled at a relative humidity of 40%-60% and a temperature of 22° C.-24° C. After an adaptation period of 1-2 weeks, the mice were used for the experiment.
Basal blood glucose levels were assessed on the day of the experiment, and the mice were weighed. Based on random blood glucose and body weight, the diabetic mice were divided into a solvent group or a treatment group. The mice in the treatment group received subcutaneous injections of the GLP-1 compounds at doses of 100 and 300 μg/kg. The solvent consisted of propylene glycol (14 mg/ml), phenol (5.5 mg/ml), and disodium hydrogen phosphate (1.133 mg/ml) at pH 7.4.
Subcutaneous administration was performed at the nape of the neck (50 μl/10 g body weight). The GLP-1 compound in the GLP-1 pharmaceutical composition of the present invention or the solvent were administered at approximately 10:00 am (time 0), once every 2 days for a total of 16 doses. Blood glucose levels in the mice were evaluated at 3 hours, 6 hours, 1 day, and 2 days after the initial administration. HbA1c was measured 48 hours after the final administration using EDTA anticoagulant.

[1] = oral semaglutide tablets (RYBELSUS) with SNAC, clinical studies; cited from earlier work
[2] = Chemical stability: related substances by HPLC after storage (Example 17); assay type: physicochemical
Protocol: The content of related impurities was determined using high-performance liquid chromatography (HPLC) on a Waters Kromasil 100-3.5-C8 (4.6*250 mm) column. The column temperature was set at 35° C., and the sample chamber temperature was set at 5° C. The elution was performed at a flow rate of 1.0 ml/min. The eluent consisted of the following components: • Phase A: 90 mM potassium dihydrogen phosphate and 10% acetonitrile (v/v), pH 2.4 • Phase B: 75% acetonitrile (v/v)
The gradient was as follows: linear change of 75%/25% A/B to 55%/45% A/B from 0 to 5 minutes, linear change from 5 to 12 minutes to 50%/50% A/B, linear change from 12 to 42 minutes to 40%/60% A/B, linear change from 42 to 60 minutes to 10%/90% A/B, linear change from 60 to 61 minutes to 75%/25% A/B, and steady gradient of 75%/25% A/B from 61 to 70 minutes.
Detection wavelength was set at 214 nm, flow rate at 1.0 ml/min, and injection volume at 15 μl.

Substance	Reduction in HbA1c (FIG. 5c) (Kkay mice)	Hypoglycemic effect, blood glucose and AUC (FIGS. 5a-5b) (Kkay mice)	Bioavailability [1]	Maximum individual impurity % ([2]; 25° C./60% RH, 15 month)	Purity of compound 5 % ([2]; 25° C./60% RH, 15 month)	Total impurities % ([2]; 25° C./60% RH, 15 month)	Maximum individual impurity % ([2]; 30° C./65% RH, 1 month)	Purity of compound 5 % ([2]; 30° C./65% RH, 1 month)	Total impurities % ([2]; 30° C./65% RH, 1 month)	Maximum individual impurity % ([2]; 30° C./65% RH, 2 month)	Purity of compound 5 % ([2]; 30° C./65% RH, 2 month)	Total impurities % ([2]; 30° C./65% RH, 2 month)	Maximum individual impurity % ([2]; 30° C./65% RH, 3 month)	Purity of compound 5 % ([2]; 30° C./65% RH, 3 month)	Total impurities % ([2]; 30° C./65% RH, 3 month)	Maximum individual impurity % ([2]; 30° C./65% RH, time 0)	Purity of compound 5 % ([2]; 30° C./65% RH, time 0)	Total impurities % ([2]; 30° C./65% RH, time 0)
N-ε^26-[2-(2-[2-(4-[19-carboxynonadecanoylamino]-4(S) -carboxybutanoylamino)ethoxy]ethoxy)acetyl][Gly8, Arg34]GLP-1-(7-37) peptide [Compound 2]	significant reduction in HbA1c	significant hypoglycemic effects	–	–	–	–	–	–	–	–	–	–	–	–	–	–	–	–
semaglutide	–	–	around 1%	–	–	–	–	–	–	–	–	–	–	–	–	–	–	–
N-ε^26-[2-(2-[2-(2-[2-(2-[4-(21-carboxyheneicosanoylamino)-4(S) -carboxybutanoylamino]ethoxy)ethoxy]acetylamino)ethoxy]ethoxy)acetyl][Gly8, Arg34]GLP-1-(7-37) peptide [Compound 5]	significant reduction in HbA1c	significant hypoglycemic effects	–	0.97%	96.14%	3.86%	0.76%	96.85%	3.15%	1.03%	96.67%	3.33%	0.93%	95.19%	4.81%	0.73%	96.5%	3.5%
